± gives the standard deviation of the averaged measurements.
test system: ATP; assay: switch fluorescence ratio, 500 uM ATP over buffer (Cy3 cluster intensity, sum of 5 cycles each) (fold (ratio)); higher = stronger signal-on switching upon ATP binding; sequences stand for … in TCGTCGGCAGCGTCAGATGTGTATAAGAGACAGTTTTTTTTTTTTTTTTTTTTTTTTT…TC; details: aptamer strand: ATP DNA aptamer (quencher-CACCTGGGGGAGTATTGCGGAGGAAGG + anchor), 100 nM annealed; ATP concentration: 500 uM
In short: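 Cy3-labelled switching-strand clusters on a modified Illumina MiSeq flow-cell were annealed to 100 nM quencher-labelled ATP aptamer, imaged in selection buffer, then imaged after 15 min with 500 uM ATP at 22 °C. Five buffer/ATP cycles ran, with NaOH stripping and re-annealing between them. The fluorescence ratio is summed target-cycle over summed buffer-cycle Cy3 intensity per cluster, averaged per switch-domain sequence. Clusters outside 100-1000 RFU were excluded.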
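Note: ATP exposure 15 min at 22 °C before imaging.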

Sequence	switch fluorescence ratio
AACATTAAAT	1.1 ± 0.1
ACGGTATGGG	1.07 ± 0.046
TGACGGTGGC	1.02 ± 0.017
AAGAGGGCGT	1.012 ± 0.0064
CGCGGCGTTC	1.023 ± 0.0057
GGGTTTACGG	1.02 ± 0.017
CTCAGTAGGC	1.13 ± 0.066
CTGAGGGGGA	1.09 ± 0.17
GCTCCTTAGG	1.12 ± 0.048
TTCTCGTGTG	0.974 ± 0.035
CCCTAACCCG	1.18 ± 0.055
AGAGATGCTT	0.99 ± 0.032
TGATTGTATT	0.979 ± 0.015
GGGGAGAAAG	0.9964 ± 0.0029
TGAGCCCGCT	1 ± 0.016
CTCGGGGTGC	1.036 ± 0.004
GGGTCAGTGT	0.952 ± 0.018
CGGTGCGCTG	0.9964 ± 0.0016
GGTGGGAGTT	1.04 ± 0.032
TGAATGCTTT	1.23 ± 0.3
TGGGGCCCGG	0.984 ± 0.019
CGATATACTG	1.09 ± 0.074
GACATATACA	1.07 ± 0.025

Sequence	switch fluorescence ratio
ATCGTTGCGT	1.02 ± 0.031
CTGGTTATCG	0.9998 ± 0.0032
TAGTCTATTT	0.977 ± 0.02
TTCTCTTTTG	0.993 ± 0.031
AATGCTTGAG	1.05 ± 0.08
TTGGCGCGCA	1.023 ± 0.0016
AACGGTTAAA	1.011 ± 0.0022
TACGCAGTAT	1.15 ± 0.061
AATGGGCTAG	0.993 ± 0.059
TTAAAATACA	1.1 ± 0.14
AGGGGGCGTA	0.9896 ± 0.0086
CGGTTAGTTT	0.97 ± 0.034
ATTGGGAGC	0.956 ± 0.015
AAATTCGGGT	0.981 ± 0.016
CTCGCAGGCT	1.25 ± 0.037
CTCTGGGATG	1.01 ± 0.064
GGCTCAGCGG	1.03 ± 0.07
ATAGTGGTGG	1.01 ± 0.052
TCCGACTCTT	1.53 ± 0.72
ATCCTGGGGG	1.4 ± 0.7
GCTTTGGGGC	1.01 ± 0.02
TAGGAGGGGG	0.995 ± 0.04
GTGAGTTTGT	1.01 ± 0.027

Sequence	switch fluorescence ratio
GCTAATGTGC	1.02 ± 0.018
TAGTGTGGGA	1 ± 0.043
GATATCGATG	1.029 ± 0.0089
CTCCTACACC	1.25 ± 0.041
CCAGATTGGG	1.004 ± 0.0052
CCTTTTAGGT	0.9846 ± 0.0043
AGGGACACTA	1.07 ± 0.028
GTGGAGTTGG	1.31 ± 0.44
GGGCCTGGGT	1 ± 0.017
ATCTCTTTCT	1.04 ± 0.019
GTCATTGGGT	0.99 ± 0.021
TAGGAAGGTA	1.01 ± 0.018
TGAGGGGGTA	0.995 ± 0.033
CGGAGGTTTT	0.993 ± 0.049
AGAGTACGTA	1.041 ± 0.0065
GAAAGTGGGA	0.988 ± 0.025
GGGGATAATT	1.05 ± 0.025
AATGGGGGTT	1.02 ± 0.037
AAGGTAACAA	1.01 ± 0.051
GCCAGGGAAA	0.9958 ± 0.0046
CGGATGTAAC	1.02 ± 0.024
TACACCTTTC	2.3 ± 0.073
CCCAATAGTG	1.35 ± 0.042

Sequence	switch fluorescence ratio
GGAGGGCGTC	0.952 ± 0.0048
GGTGGCATTT	1.08 ± 0.011
TATTTTTCAG	1.03 ± 0.015
ACCAATATCT	1.01 ± 0.068
TTTTTTTG	0.997 ± 0.026
GGTACCAAAA	0.992 ± 0.024
GGGTTTTTAT	0.989 ± 0.027
GGAGAAGTGG	0.976 ± 0.034
CGTTGCTACA	1.01 ± 0.019
TGTGTGAAGT	1.01 ± 0.059
CTGTTACTGA	0.999 ± 0.041
TGGCGCCCGT	1.08 ± 0.11
TGTGAACAGT	0.975 ± 0.044
GTTGGGGGAA	0.983 ± 0.023
CAGGGGGGCT	1.04 ± 0.057
AATGAGGCTT	0.996 ± 0.011
TGATGGAAAA	0.998 ± 0.023
AAGTTTGCTA	1.01 ± 0.031
ACAGGTGCCG	1.13 ± 0.11
AAGTTGGCAT	0.977 ± 0.04
CTGGGGATGG	0.995 ± 0.02
ACGTAGTCAT	1.04 ± 0.03
ATGATCTAGT	1.03 ± 0.064

Sequence	switch fluorescence ratio
TAGACAGCCA	1.02 ± 0.041
CGGAGTTAAT	1.66 ± 0.048
TTACAAGGGT	0.973 ± 0.023
TGGGATTATC	1.02 ± 0.027
ACTAATACGA	2.41 ± 1.8
AAGGTTTTGG	1.15 ± 0.24
ACCTTTGTTT	1.001 ± 0.0054
GTCGTTGCCT	0.99139 ± 0.00027
TTTCCTATTG	1.01 ± 0.027
ATGTTCAAGA	1.01 ± 0.015
GCTGGGTGAT	1.018 ± 0.0069
ACATCGTCGG	1.014 ± 0.0091
TCACAGGATA	1.021 ± 0.0056
CCTTTGGGGT	1.69 ± 1.2
AGGTTGATGG	0.954 ± 0.043
AGGAACATAG	1.15 ± 0.2
CATTAGGGGG	1.04 ± 0.037
TAAACTTTTG	0.9786 ± 0.0039
CGCGCTGACT	1.05 ± 0.017
TTGGACTAGC	0.981 ± 0.033
CATTTAATTC	1.04 ± 0.014
TTTGAGCATA	1.06 ± 0.042
AAGTGTGTTT	1 ± 0.031

Sequence	switch fluorescence ratio
TACTTGTGTA	1.02 ± 0.014
GGTATAAATG	1 ± 0.019
GAGGTTATGC	0.968 ± 0.04
ATGAGAGGAT	0.9797 ± 0.0026
CACTAAATGT	1 ± 0.035
TGGGGGGGGA	1.02 ± 0.036
TTTCTTTGAA	0.977 ± 0.018
TATCCTGGAC	1.05 ± 0.045
GGGAATGGAG	0.976 ± 0.029
CCGGTATAAT	1.144 ± 0.0026
TTTTTCCACG	1.03 ± 0.018
ATTTGACGGT	1.07 ± 0.11
CAGCACAGAT	1.015 ± 0.0019
ATATAGGGTG	1.09 ± 0.019
TTTGGAGGTT	1.11 ± 0.2
TTGTTAAGTG	1.02 ± 0.1
GCATGGAGGG	1.01 ± 0.025
GCGTTGGGAG	1.018 ± 0.0031
AACGGGGTTA	1.04 ± 0.06
ACTGGGGCCG	1.01 ± 0.056
CTTGTTCATG	1 ± 0.017
GCTTGGGGGG	1.02 ± 0.029
TAAATCGGGG	0.995 ± 0.049

Sequence	switch fluorescence ratio
TGCGGAGTAC	1.33 ± 0.14
TATGGTAGGC	0.9857 ± 0.0042
GGTACGCG	0.982 ± 0.027
GCCATATTGG	0.9715 ± 0.0077
TTCTCGAATT	1.01 ± 0.039
TGAAGTTGGG	1.11 ± 0.15
ATCGACTTGG	1.016 ± 0.0053
TTAAGTTTTT	0.98835 ± 0.00077
GTGAGTCAGC	1.06 ± 0.075
CTGTGCAGTC	1.26 ± 0.075
TTCCTTGGTG	1.94 ± 0.89
TCGTAGGCAT	1.004 ± 0.0036
GGGAAAGAGG	0.991 ± 0.048
AATGAGGGAG	0.995 ± 0.01
ATTTGGCCGG	1.01 ± 0.04
TGGAGCTGGG	1.31 ± 0.5
TTTTGTTATT	1.03 ± 0.068
AGGAAATGGG	1 ± 0.036
GAGTGCAGGA	1.01 ± 0.033

Source: the supplement of paper PMC10126150
